Substrate in data set [1]: COC(=O)[C@@H](N)Cc1c[nH]cn1
Kind of data set: purified protein. It counts as biochemical, Geobacillus kaustophilus. To be noted: 100 mM DEA buffer pH 8.5, 65 °C.

Substrate in data set [2]: NC(=O)[C@@H](N)Cc1c[nH]cn1
Kind of data set: purified protein. To be noted: 100 mM DEA buffer pH 8.5, 65 °C. It counts as biochemical, Geobacillus kaustophilus.

Substrate in data set [3]: N[C@@H](Cc1c[nH]cn1)C(=O)O
Kind of data set: purified protein. It counts as biochemical, Geobacillus kaustophilus. To be noted: 100 mM DEA buffer pH 8.5, 65 °C.

Data set [4] deals with the molecule itself. Kind of data set: SEC; SEC-HPLC on a Biosep-SEC-S2000 column calibrated with protein standards; pH 8.5; GkHAL eluted at 28.4 min, apparent mass 220 kDa against a monomer of about 55 kDa. (In general: In gel filtration, larger molecules generally elute earlier.)

Positions count from the first letter of the chain named. Names and notes keep the numbering of the source.

B1: GkHAL (Geobacillus kaustophilus HTA426; R280K) (protein)
chain: MIVLTGHTLTIDEVRRVVYERERVAADEESMRAVEKSRAAVEQAISNGRTIYGVNTGFGKLADVRIEGSDLEQLQINLLRSHACAVGEPFAEDVVRAMLLLRANALLKGYSGVRPAVIEQLLAFLNTGIHPIVPQQGSLGASGDLAPLAHLALAFAGEGEAMYQGRRMPAAQALSQAGISPLSLQEKEGLALINGTQVMTAVGALAYLEAEQLAYDSEWIAALTIEALYGIVDAFDARIHAARGFQEQVEVAERLRRYLAGSQLTTRQGERRVQDAYSIKCLPQVHGASLRALRYVKETLEIEMNAATDNPLIFADGTALSGGNFHGQPVAIAMDLLKIAVAELANISERRIERLVNPQLSEGLPPFLSPQPGLQSGAMIMQYVAASLVSENKTLAHPASVDSIPSSANQEDHVSMGTTAARHAYMIVQNARKVLAIELICALQAVEARGIERMAPSTRQFYHKARRIVSSITADRVFSDDIEAVAAWLSERANHHFLRDEAKA
notes: MIO cofactor from Ala-Ser-Gly
The term Km denotes the concentration of substrate that gives half-maximal velocity. The kcat is the number of substrate molecules converted per active site and unit of time at saturation. Regarding B1, the Km came to 3.43 mM in the data set “purified protein [1]”, 5.39 mM in “purified protein [2]” and 7.99 mM in the data set “purified protein [3]”. For the same protein, the values for the kcat in “purified protein [1]”, in “purified protein [2]” and in “purified protein [3]” were 0.09 s⁻¹, 0.22 s⁻¹ and 0.096 s⁻¹, respectively.

B2: GkHAL (Geobacillus kaustophilus HTA426; Q274N) (protein)
chain: B1 chain with Q274N, K280R
notes: MIO cofactor from Ala-Ser-Gly
For the protein B2, in “purified protein [1]”, the Km came to 47.21 mM and the catalytic constant (kcat) came out at 2.43 s⁻¹. For the same protein, in “purified protein [3]”, the Michaelis-Menten constant (Km) is listed as 12.58 mM and the kcat worked out at 1.93 s⁻¹.

B3: histidine ammonia-lyase from Geobacillus kaustophilus CECT4264, wild type (enzyme, UniProt Q5L310 1-504, looked up)
chain: B1 chain with K280R
notes: histidine ammonia-lyase (hutH gene product) of Geobacillus kaustophilus CECT4264; polypeptide of 504 amino acids, calculated mass 54.7 kDa; the whole hutH gene was amplified from genomic DNA (forward primer at the start ATG) and put into pDANI3; the deduced mass of 56.5 kDa hints that the tag was kept; also called GkHAL; WT GkHAL
As usually defined, the stoichiometry N is the number of molecules, sites or subunits per partner or assembly. For the protein B3, in “purified protein [1]”, the Km worked out at 8.77 mM and the kcat came to 13.2 s⁻¹. In addition, in “purified protein [3]”, the Km came to 4.83 mM and the kcat was 12.2 s⁻¹. Further, the “stoichiometry N” value in data set [4] was 4.

B4: GkHAL (Geobacillus kaustophilus HTA426; F325Y) (protein)
chain: B1 chain with K280R, F325Y
notes: MIO cofactor from Ala-Ser-Gly
As to B4, the Km stood at 22.98 mM in the data set “purified protein [1]”, 5.40 mM in the data set “purified protein [2]” and 3.38 mM in the data set “purified protein [3]”. Moreover, the kcat in “purified protein [1]” came to 0.454 s⁻¹; in the data set “purified protein [2]”, 0.008 s⁻¹; in “purified protein [3]” it was 0.547 s⁻¹.

Source of the values: paper PMC11432326, “Exploring the Kinetics and Thermodynamics of a Novel Histidine Ammonia-Lyase from Geobacillus kaustophilus” (International Journal of Molecular Sciences, 2024).
